Measurements: publication PMC11992677

Assays:
[1] = test system: METTL3 (METTL3/14 complex);METTL14 (METTL3/14 complex); test: MST; conditions: MST and nanoDSF: 20 mM Tris pH 7.5, 50 uM ZnCl2, 1% glycerol, 1 mM DTT (MST 100 nM probe; nanoDSF 1 uM protein, 20-80 C). EMSA: 40 mM KCl, 20 mM Tris pH 7.6, 1.
[2] = test system: METTL3 (METTL3/14 complex);METTL14 (METTL3/14 complex); test: thermal shift (nanoDSF); conditions: MST and nanoDSF: 20 mM Tris pH 7.5, 50 uM ZnCl2, 1% glycerol, 1 mM DTT (MST 100 nM probe; nanoDSF 1 uM protein, 20-80 C). EMSA: 40 mM KCl, 20 mM Tris pH 7.6, 1.
[3] = test system: MacroH2A.1.1 (with H2B);H2B (with MacroH2A.1.1) (;); test: MST; conditions: poly(ADP-ribose) polymer, no base sequence; MST and nanoDSF: 20 mM Tris pH 7.5, 50 uM ZnCl2, 1% glycerol, 1 mM DTT (MST 100 nM probe; nanoDSF 1 uM protein, 20-80 C). EMSA: 40 mM KCl, 20 mM Tris pH 7.6, 1.
[4] = test system: MacroH2A.1.1 (with H2B);H2B (with MacroH2A.1.1) (;); test: thermal shift (nanoDSF); conditions: 50 uM ZnCl2; dose-dependent; poly(ADP-ribose) polymer, no base sequence; MST and nanoDSF: 20 mM Tris pH 7.5, 50 uM ZnCl2, 1% glycerol, 1 mM DTT (MST 100 nM probe; nanoDSF 1 uM protein, 20-80 C). EMSA: 40 mM KCl, 20 mM Tris pH 7.6, 1.

| Substance | Kd [1] | binding signal [2] | Kd ([1]; poly(ADP-ribose) polymer, no base sequence) | Kd [3] | binding signal (C (delta Tm, maximum)) ([2]; 50 uM ZnCl2, concentration-dependent, poly(ADP-ribose) polymer, no base sequence) | binding signal (C (delta Tm, maximum)) [4] |
| --- | --- | --- | --- | --- | --- | --- |
| DRACH RNA probe (4 tandem repeats of DRACH motif) | 700 nM | 1 C (delta Tm) | – | – | – | – |
| PAR (poly-(ADP-ribose)) | – | – | 1100 nM | 500 nM | > 2 | 3 |
